This data set is described as follows: soluble on expression in E. coli; label from the status in PepcDB or PDB records.
On to “MDRLDRKILRILQEDSTLAVADLAKKVGLSTTPCWRRIQKMEEDGVIRRRVALLDPVKVNTKVTVFVSIRTASHSIEWLKRFSEVVSEFPEVVEFYRMSGDVDYLLRVVVPDIAAYDAFYKRMIAKIEIRDVSSAFAMEQIKYTTELPLDYMLLDNPKSGEE”, for which the “soluble on expression in E. coli” value was “soluble”.

Consider “MDNHGILESLLFTAGDEGLDEKQLLEILDMSKDQLVELIENYSSHGLMIQRFGMTYVLTTKKEAATYIEQLIEQKSQMKLSQAAMEVLSIIAYNQPLSRSDIELIRSINSDGAVKTLIAKGLVEAKVVNEQRSQQLITTDLFLNVFGISNIEDLPTTEEDDEEMDAFFSNLVNQKGENND”, for which the “soluble on expression in E. coli” value was “not soluble”. The entry for “MENFAVIDLGSNSCRMTITQIQEDGSYAVTHRLKEMVRLSENENATDTPTLQAEAIDRTIAALKSFAAVYKDLPNLTIKAVATAATRKASNQKKFLKRVKNDVGLDIEVIPGTTEAYYDYLGVVNTLPTTNCVMVDTGGGSCELVLIVNGQAKDLISLPIGAVSLSEKFGLNDQVTASQLFKTMTFVDKIFNSVWWLRNGLNLPLVCLGGSNRTLAKINRRKCNILNFEDIHGYRLRDNAIYDTFNTVISQDAAGRAAIPGLAKDRADIIVGGMIPAISLMRFLDSDRMIFSQNGLREGILFEHLTALAEQSAKVSELEHHHHHH” is “not soluble”. Turning to “MAVSQGVSLKEDLKDLVRKAEEIGRELSGKLKTNQLRKFHGHLTKIWSNYIYKKKDYRDNPEKFNEEILNELHFMKIFLAYQVGRDIEGISELKEILEPLIDEIKTPDEFEKFKKFYDAILAYHKFHSESEKSNRRTARR”, the “soluble on expression in E. coli” value is on record as “not soluble”.

In the case of “MAHHHHHHLRCAPSKLFRATPLLRVWAAEEDDASAPRTTFRNVRPGRLLRLWRQMRHRAWMLYAWDEEWVSPMQEGYLHQQRLEQVCFAPLSAYGVVPGSYCDPLLYNTKRTSPFRWHVANVQGDVVGHWYMDADELFRIEDWQPREPDDPLEMFPRPPPMLLRWDESVDEHGNRAFRYRYHYDMMGPTGKWEAYPRCPFSHLYHGGPDQHGRAEGYGFQQGHLLRCDEAEEEVLRRIMEGEDREWEMVKRTEAVQEPWSYPGKIRPRDFEGAVEHAKARYRERVRHGKETDPSEDPEYDLVQASEYVEPRDGRRAEWRHLWASGRKPGESLPFHVAFNDGLCFEGNEGGPPAHPAAHYEATPKGAPYGRYEDADAAAARAAEAAHNAACEQSLSEAMARHRRLFGDTSGAPSGPKAPLPTGCRPMRCAPGPPLPSGRSRSSGARAVGSGPVCGAGARDGESEGEGRGGEAPLGYGARACSWRRREGWV”, the “soluble on expression in E. coli” value is “soluble”. For “GPLGSEWYYGNVTRHQAECALNERGVEGDFLIRDSESSPSDFSVSLKASGKNKHFKVQLVDNVYCIGQRRFHTMDELVEHYKKAPIFTSEHGEKLYLVRALQ”, the “soluble on expression in E. coli” value is recorded as “soluble”. “MKSSDRLFTGRSENYSKFRPSYPVGIVKMLTDKYGLKKEMVIADIGCGTGILARMFLENGNKVYCIDPNGEMLKFAKDELSSFGNAIIVRGSAENTGLEDHSVNVISAGQSFHWFDTDKAKVEFRRILTAPYMVVLIWNDRDIDDGFTAEYEKIVSAYGKNYQGTGSTGLPPDTIPQFFNWAYDYYQYQNYQELDLEGLKGRYLSTFYSITQEYPKFQAAMKALETAFNAFSVDGKVRIRYITKVFVGKLNPLEHHHHHH”: the “soluble on expression in E. coli” value is “soluble”. Consider “MSCINLPTVLPGSPSKTRGQIQVILGPMFSGKSTELMRRVRRFQIAQYKCLVIKYAKDTRYSSSFCTHDRNTMEALPACLLRDVAQEALGVAVIGIDEGQFFPDIMEFCEAMANAGKTVIVAALDGTFQRKPFGAILNLVPLAESVVKLTAVCMECFREAAYTKRLGTEKEVEVIGGADKYHSVCRLCYFKKASGQPAGPDNKENCPVPGKPGEAVAARKLFAPQQILQCSPAN”, for which the “soluble on expression in E. coli” value is listed as “soluble”. For the sequence “MEDEHSRQAYVDQLGLLEEGADEVFEEILAAATSYFQTPIALISILDHQRQWFRASIGLDIRQTPRRDSFCAYAILGKGVFEVADATLDPRFRDNPYVQGEPRIRFYAGAPLATAEGLNLGSLCVIDREPRGPLAERDVAMLEHFARLVMARIHTLRSTNYIDEPTGLYNRLRLQEDVSLRLQRDGALTVIAADLLPLALLNTIIRTLGYPFSNDLMLEARDRIRAELPDFTLYKISPTRFGLLLPRQQQEETESVCLRLLRAFESPVVCRGIPIKANVGLGVLPLADDTLDGDQDWLRLVVSAADDARDRGVGWARYNPPLDQAQQRAFTLLTSLSQAIGTEEGFHLVYQPKIDLPTGRCTGVEALLRWRHPQLGFVSPAEFVPLAEKTALMRPLSDWVLRHAMAQLAQWNARNIPLRLAINVSASDMEDSSFLEEAVRLAKTYDIDLSALELEFTESVLIRDASAVGSVLLRARELGMGIAVDDFGTGYSNWTYLRDLPITAIKLDQSFTRDLAGSPKAQSVTQAVIGLASQLGYRVVAEGIETHDTFHLLQAWGCHEGQGYLIAQPMLPEQLEDWLRRLEHHHHHH”, the “soluble on expression in E. coli” value is given as “not soluble”. Then “MCLAIPSVVIDIFEEDGEKYALAEYKGVKQKAKLALIEGVEIGDYVLIHTGYALEKMSEDEAKLSLDAWEELFDVLDEMDGVKKENSE”, with “not soluble”; and “MGSDKIHHHHHHMHYEEGDDLVASSMTYSVKEMSMRNVRPVLLSLGLLSTVGIATAADTTTFNVKIAVTKACTITAASATDVDFGSVLSTSTANADANGSVTAQCTALTPYNIALSAGSNAGTANDVTTRRMKNTDALVTTNNFVAYQLYQDLGRSTVWGSTSGTNTLSRTATGINQIYPVYGRVTNPSAGNPATGTYQDTITATIIY”, with “not soluble”; and “MSPSASDKPLPPHHAEHMAEAVAEACRGVECGDGGPFGAVVVDSNGKVVAKGHNMVLVTKDPTMHAEMTAIKNACKALGTFDLSGHILYTSCYPCPMCMGGCLWARFDAIYYGATAQQAAEIGFDDKAFHDFLKDPKSDEIRKLEHLAADNYLLPFQMWSNKPDKTEY”, with “soluble”. Consider “MNIPTTTTKGEQAKSQLIAAALAQFGEYGLHATTRDIAALAGQNIAAITYYFGSKEDLYLACAQWIADFLGEKFRPHAEKAERLFSQPAPDRDAIRELILLACKNMIMLLTQEDTVNLSKFISREQLSPTSAYQLVHEQVIDPLHTHLTRLVAAYTGCDANDTRMILHTHALLGEVLAFRLGKETILLRTGWPQFDEEKAELIYQTVTCHIDLILHGLTQRSLD”, for which the “soluble on expression in E. coli” value is on record as “soluble”.

With “MASRAPKEVPLCPLMTDGETRNVTDLPGPTNWPLLGSLLEIFWKGGLKKQHDTLAEYHKKYGQIFRMKLGSFDSVHLGSPSLLEALYRTESAHPQRLEIKPWKAYRDHRNEAYGLMILEGQEWQRVRSAFQKKLMKPVEIMKLDKKINEVLADFLERMDELCDERGRIPDLYSELNKWSFESICLVLYEKRFGLLQKETEEEALTFITAIKTMMSTFGKMMVTPVELHKRLNTKVWQAHTLAWDTIFKSVKPCIDNRLQRYSQQPGADFLCDIYQQDHLSKKELYAAVTELQLAAVETTANSLMWILYNLSRNPQAQRRLLQEVQSVLPDNQTPRAEDLRNMPYLKACLKESMRLTPSVPFTTRTLDKPTVLGEYALPKGTVLTLNTQVLGSSEDNFEDSHKFRPERWLQKEKKINPFAHLPFGIGKRMCIGRRLAELQLHLALCWIIQKYDIVATDNEPVEMLHLGILVPSRELPIAFRPR”, the “soluble on expression in E. coli” value is reported as “soluble”. As for “SDRKSDRELLYFRKKLQRKLGPISIATPEALLNAHEMLRDKMHYFIEQTQCSVGIFIHRGFKHAGKVLLLMENEGDEELLAYARSLARNNGSVLDVLPETDGLPPTLSMGENRLKAGLPSTINISSYHFMLVSYRYWLRFAGECPSVIEHLPSTIIIHHRNDRSSTLKAAMI”, the “soluble on expression in E. coli” value was “not soluble”.

On to “MAHHHHHHMTMRRFGGALTRPLGGMRRVVVGPNGSVPEAGCVPTFETRRRKRLRLGGSLTGDWVASTESLSGSCVREEEARLLCFEKYGFVHKPLTMASWSDFLQELARFEFRWRLLPCVGGVTVLNIVERNCGDENVLCDLRTSCGSAPFAQFFECLGAFVQGTSEKRCIMFCDPNGLEQSLEIRAKRHLSPALGEGFEDEKPILPTLAQYDCRGTLVDLVLKDMKTDVLRPIISDISMQALNYAFLVSIPLFLRQADVGVRNTDLVSKEQMRHFRFAWCFLRRESMMTPVEIGELDTLLPP”, for which the “soluble on expression in E. coli” value is recorded as “not soluble”. On to “MSLKVTIKDIATICGVSAGTVDRALNNRTGISEKTREKILKTAKELNYRPDYTARSLVMGKTMTIGVVLFDLYNRSFAQLLNAIELKARELGYFIYITLSDKNPENELNCIEHLVNRKVDGIILFTVNKGEQFEANLSKWGIPIITIFNYVSEKWEYIGIQERQAMKEAVDYIASKRYKKFIYISPPLTYLGKNNIYTQEERLNGFYDGLKSNGITSKPLIIKNSEYIKELDNITFSQDGKVAIVCATDLYALEVMNYLKEKGFNIPEQVGVMGFDDIDMLKYITPRLTTVKYPIDEIGRRAIESMVNKINHGHFISTPLLNYQIIKGESIEGHHHHHH”, for which the “soluble on expression in E. coli” value is reported as “soluble”. Take “MSLAQYPVIGIDDDEFATAKKLITKQEVRAVTLSKLRLQDDLVMWDIGAGSASVSIEASNLMPNGRIFALERNPQYLGFIRDNLKKFVARNVTLVEAFAPEGLDDLPDPDRVFIGGSGGMLEEIIDAVDRRLKSEGVIVLNAVTLDTLTKAVEFLEDHGYMVEVACVNVAKTKGLTEYKMFESHNPVYIITAWKSDEGHHHHHH”: the “soluble on expression in E. coli” value was “soluble”. For “QEQQQELAQLEMARSALDSLSELICLQDCQGNLLTTNRAFDQFWEGRREEAITATASRVATRKSERKWTTDTQGRSCLLEVNLSSLVSPSGELLGTLSISHDVT”, the “soluble on expression in E. coli” value is listed as “not soluble”. Regarding “MKQVAKGLQMEGNFGTAHVYRSSLNAIIAYRGKGDFTFHEVTPEWLKGFEIHLRGRGCSWNTVSTYLRTFRAVYNRAVDCRGAVYVPHLFRSVYTGTRADRKRALCDEDMQKVFAKLPSSPAVTPAMRRTQELFVLMFLLRGLPFVDLAYLRKSDLHDNVITYRRRKTGRPLSVTLTREAMVLLKRYMNRDSSSPYLFSLLESREGTKEAYREYQLALRSFNQQLLLLGQLLGLGDRLSSYTARHTWATTAYYCEIHPGIISEAMGHSSITVTETYLKPFRNKKIDEANQLVTDFVKRIVTGLIA”, the “soluble on expression in E. coli” value is “not soluble”.

For “MKSHQFSTALCQNTTESNGQPLRFPSPAKLNLFLYINGKFPNGYHELQTLFQFLDFGDWLDISIREQDNQIVLTPEIPNLKTENNLIYRAAKLLQEKANIQLGANIHLDKILPMGGGVGGGSSNAATALVSLNYLWQANLSIDELAKLGLTLGADVPIFVHGHAAFAEGVGEKITYCEPAEKWFVILKPDDSISTAVIFQDPNLPRNTPKKSLAQLLSEPYKNDCEKVVINHYSNVEKALNWLLQYAPARLTGTGACVFAEFDHEAEAQAVFRQKPEAFFGFVAKGLNVSPLHAMLKQLSSTHTHRQSKPEVLLEHHHHHH”, the “soluble on expression in E. coli” value is “soluble”. Turning to “MEIVRTKQFSLKPMDSEEAVLQMNLLGHSFYVYTDAETNGTNIVYSRKDGKYGLIETNLEHHHHHH”, the “soluble on expression in E. coli” value is given as “not soluble”. The entry for “MGSDKIHHHHHHMFAHCDVNAFYASCQTAFRPDLKGRPVVVLSNNDGCVIARSAEAKPFVKMGEPYFKQKAAFLRHGVVAFSSNYELYADMSSRVMATLEELTPRCEIYSIDEAFCDVSGVRHCRDLTDFGREIRATVLQRTHLTLGVGIAQTKTLAKLANHAAKQWPRQTGGVVDLSCPQRQRKLMALLPVSEVWGIGRRIGKKLEAMGIGTVLQLAESDIRFIRKHFTVVLERTVRELRGEPCLALEEFAPAKQEIICSRSFGDRITAYEDMRQAICSYAARAAEKLRGEHQYCRFVSAFVKTSPFALNEPYYGNSASLKLLTPTQDSRDIIAAATSCLDAIWKAGHRYQKAGVMLGDFYSQGVAQLNLFDELAPRHNSARLMQVLDQLNAKNGRGALYFAGQGIQQQWQMKREMLSPRYTTRYGDLLRVR” is “not soluble”.

The record behind these values is the DeepSol protein solubility set.
